This note sets out measurements from paper PMC8269367.

Sequence of HMGN3 (Homo sapiens) (Q15651 whole entry): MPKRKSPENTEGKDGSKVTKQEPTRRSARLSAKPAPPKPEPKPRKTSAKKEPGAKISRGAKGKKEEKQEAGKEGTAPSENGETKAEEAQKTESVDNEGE

The first data set addresses T1, CTCF (Mus musculus) (UniProt Q61164).
T1 sequence: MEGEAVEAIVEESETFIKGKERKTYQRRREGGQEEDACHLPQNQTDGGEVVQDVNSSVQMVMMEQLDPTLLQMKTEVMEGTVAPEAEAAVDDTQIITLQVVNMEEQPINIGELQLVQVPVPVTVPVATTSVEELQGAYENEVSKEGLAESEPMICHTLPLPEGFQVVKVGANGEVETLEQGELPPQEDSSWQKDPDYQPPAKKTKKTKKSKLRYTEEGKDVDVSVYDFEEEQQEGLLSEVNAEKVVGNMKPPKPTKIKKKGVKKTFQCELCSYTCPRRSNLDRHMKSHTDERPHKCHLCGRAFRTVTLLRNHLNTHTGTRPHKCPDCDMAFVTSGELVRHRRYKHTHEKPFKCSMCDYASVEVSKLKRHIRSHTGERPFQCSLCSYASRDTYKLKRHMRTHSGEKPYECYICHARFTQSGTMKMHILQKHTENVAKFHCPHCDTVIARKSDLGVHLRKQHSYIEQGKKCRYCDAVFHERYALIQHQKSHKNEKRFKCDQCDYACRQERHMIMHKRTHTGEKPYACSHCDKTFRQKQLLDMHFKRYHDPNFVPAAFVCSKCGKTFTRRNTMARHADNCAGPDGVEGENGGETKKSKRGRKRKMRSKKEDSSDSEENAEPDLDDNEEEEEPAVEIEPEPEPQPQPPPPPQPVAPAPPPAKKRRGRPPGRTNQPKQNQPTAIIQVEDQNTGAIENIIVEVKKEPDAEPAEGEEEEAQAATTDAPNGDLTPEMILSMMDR
Kind of data set: MST. The following applies: 50 nM labelled protein, 0.61 nM-20 uM oligo, 140 mM potassium phosphate pH 7.2 (6.7 for i-motif N1-3; CTCF oligo CD at pH 6.7), 10 mM NaCl in oligo ….
As usually defined, the Kd is the constant that tells how readily two partners part at equilibrium. Regarding GGGGGGCGGGGGGCGGGGGGGGGGG [BDN-G4], the Kd turned out to be 120 nM. For GGGGGTGGGGGGTGGGGGGAGGGGGG [SHA-G4], the Kd was found to be 70 nM. Turning to control CTCF duplex, the equilibrium dissociation constant (Kd) was found to be 80 nM.

A further data set has as its target HMGN3 (Homo sapiens) (UniProt Q15651). Put plainly: MST. The following applies: 50 nM labelled protein, 0.61 nM-20 uM oligo, 140 mM potassium phosphate pH 7.2 (6.7 for i-motif N1-3; CTCF oligo CD at pH 6.7), 10 mM NaCl in oligo ….
Regarding AAAAAAAAAAAAAAAAAAAA [A20], the Kd was > 20000 nM. In the case of “AAGGAAAAGAAAAAA (double strand) [N3-2/N3C-2]”, the dissociation constant (Kd) is > 20000 nM. Turning to “CAATCGGATCGAATTCGATCCGATTG [hair (ds26)]”, the Kd was > 20000 nM. As for GGAGCAGGTGGGGAGCAGGCCGGAAGAGG [N3-M5], the Kd is > 20000 nM.

Substance GGGGACGAAGGGGGCGCGGTGCCTCCTGG [N3-M7] gave a Kd of 150 nM. With GGGGCCAGTGGACGCGGGGAGCCTGCGGG [N3-M6], the Kd is > 10000 nM. As to “TTTTCTTCTTCTTTT (double strand) [N3-1/N3C-1]”, the Kd is > 20000 nM. On to TTTTTTTTTTTTTTTTTTTT [T20], for which the Kd is > 20000 nM.
